Measurements: the RNAGym collection of RNA variant scans (doi:10.1021/acssynbio.7b00057)

B1: Pistol ribozyme (parent)
chain: GGGUCGUUGUUCCAUAAUCGCGUGGAUAUGGCACGCAAGUUUCUACCGGGCACCGUAAAUGUCCGACUGGAGCCGUUCGGGCGGCUAUAAACAGACCUCAGGCCCGAAGCGUGGCGGCACCUGCCGCCGGUGGUAAAAAAGAUCGGAAGAGCACACGUCU

Variants of: B1
Test: aptazyme ON/OFF ratio, guanine; higher = stronger switching; co-transcriptional cleavage with and without guanine

Compared with GGGUCGACACCGGAUAAUCGCGUGGAUAUGGCACGCAAGUUUCUACCGGGCACCGUAAAUGUCCGACUGGAGCCGUUCGGGCGGCUAUAAACAGACCUCAGGCCCGAAGCGUGGCGGCACCUGCCGCCGGUGGUAAAAAAGAUCGGAAGAGCACACGUCU, GGGUCGACACCGAAUAAUCGCGUGGAUAUGGCACGCAAGUUUCUACCGGGCACCGUAAAUGUCCGACUGGAGCCGUUCGGGCGGCUAUAAACAGACCUCAGGCCCGAAGCGUGGCGGCACCUGCCGCCGGUGGUAAAAAAGAUCGGAAGAGCACACGUCU is lower in “aptazyme ON/OFF ratio” value: 1.07 for the first, 1.06 for the second.

First: GGGUCGACACCGUAUAAUCGCGUGGAUAUGGCACGCAAGUUUCUACCGGGCACCGUAAAUGUCCGACUGGAGCCGUUCGGGCGGCUAUAAACAGACCUCAGGCCCGAAGCGUGGCGGCACCUGCCGCCGGUGGUAAAAAAGAUCGGAAGAGCACACGUCU
Second: GGGUCGACACAUCAUAAUCGCGUGGAUAUGGCACGCAAGUUUCUACCGGGCACCGUAAAUGUCCGACUGGAGCCGUUCGGGCGGCUAUAAACAGACCUCAGGCCCGAAGCGUGGCGGCACCUGCCGCCGGUGGUAAAAAAGAUCGGAAGAGCACACGUCU
The “aptazyme ON/OFF ratio” value of the first is lower: 1.06 for the first, 1.25 for the second.

Compared with GGGUCGACACAGUAUAAUCGCGUGGAUAUGGCACGCAAGUUUCUACCGGGCACCGUAAAUGUCCGACUGGAGCCGUUCGGGCGGCUAUAAACAGACCUCAGGCCCGAAGCGUGGCGGCACCUGCCGCCGGUGGUAAAAAAGAUCGGAAGAGCACACGUCU, GGGUCGACACAGGAUAAUCGCGUGGAUAUGGCACGCAAGUUUCUACCGGGCACCGUAAAUGUCCGACUGGAGCCGUUCGGGCGGCUAUAAACAGACCUCAGGCCCGAAGCGUGGCGGCACCUGCCGCCGGUGGUAAAAAAGAUCGGAAGAGCACACGUCU is higher in “aptazyme ON/OFF ratio” value: 1.09 for the first, 1.22 for the second.

Compared with GGGUCGACACCGCAUAAUCGCGUGGAUAUGGCACGCAAGUUUCUACCGGGCACCGUAAAUGUCCGACUGGAGCCGUUCGGGCGGCUAUAAACAGACCUCAGGCCCGAAGCGUGGCGGCACCUGCCGCCGGUGGUAAAAAAGAUCGGAAGAGCACACGUCU, GGGUCGACACCACAUAAUCGCGUGGAUAUGGCACGCAAGUUUCUACCGGGCACCGUAAAUGUCCGACUGGAGCCGUUCGGGCGGCUAUAAACAGACCUCAGGCCCGAAGCGUGGCGGCACCUGCCGCCGGUGGUAAAAAAGAUCGGAAGAGCACACGUCU is higher in “aptazyme ON/OFF ratio” value: 1.11 for the first, 1.18 for the second.

Compared with GGGUCGACACACAAUAAUCGCGUGGAUAUGGCACGCAAGUUUCUACCGGGCACCGUAAAUGUCCGACUGGAGCCGUUCGGGCGGCUAUAAACAGACCUCAGGCCCGAAGCGUGGCGGCACCUGCCGCCGGUGGUAAAAAAGAUCGGAAGAGCACACGUCU, GGGUCGACACACGAUAAUCGCGUGGAUAUGGCACGCAAGUUUCUACCGGGCACCGUAAAUGUCCGACUGGAGCCGUUCGGGCGGCUAUAAACAGACCUCAGGCCCGAAGCGUGGCGGCACCUGCCGCCGGUGGUAAAAAAGAUCGGAAGAGCACACGUCU is lower in “aptazyme ON/OFF ratio” value: 1.18 for the first, 1.17 for the second.

Compared with GGGUCGACACACUAUAAUCGCGUGGAUAUGGCACGCAAGUUUCUACCGGGCACCGUAAAUGUCCGACUGGAGCCGUUCGGGCGGCUAUAAACAGACCUCAGGCCCGAAGCGUGGCGGCACCUGCCGCCGGUGGUAAAAAAGAUCGGAAGAGCACACGUCU, GGGUCGACACAUAAUAAUCGCGUGGAUAUGGCACGCAAGUUUCUACCGGGCACCGUAAAUGUCCGACUGGAGCCGUUCGGGCGGCUAUAAACAGACCUCAGGCCCGAAGCGUGGCGGCACCUGCCGCCGGUGGUAAAAAAGAUCGGAAGAGCACACGUCU is lower in “aptazyme ON/OFF ratio” value: 1.28 for the first, 1.12 for the second.

Compared with GGGUCGACACAUGAUAAUCGCGUGGAUAUGGCACGCAAGUUUCUACCGGGCACCGUAAAUGUCCGACUGGAGCCGUUCGGGCGGCUAUAAACAGACCUCAGGCCCGAAGCGUGGCGGCACCUGCCGCCGGUGGUAAAAAAGAUCGGAAGAGCACACGUCU, GGGUCGACACAUUAUAAUCGCGUGGAUAUGGCACGCAAGUUUCUACCGGGCACCGUAAAUGUCCGACUGGAGCCGUUCGGGCGGCUAUAAACAGACCUCAGGCCCGAAGCGUGGCGGCACCUGCCGCCGGUGGUAAAAAAGAUCGGAAGAGCACACGUCU is higher in “aptazyme ON/OFF ratio” value: 1.15 for the first, 1.18 for the second.

Going from GGGUCGACACCAGAUAAUCGCGUGGAUAUGGCACGCAAGUUUCUACCGGGCACCGUAAAUGUCCGACUGGAGCCGUUCGGGCGGCUAUAAACAGACCUCAGGCCCGAAGCGUGGCGGCACCUGCCGCCGGUGGUAAAAAAGAUCGGAAGAGCACACGUCU to GGGUCGACACCAUAUAAUCGCGUGGAUAUGGCACGCAAGUUUCUACCGGGCACCGUAAAUGUCCGACUGGAGCCGUUCGGGCGGCUAUAAACAGACCUCAGGCCCGAAGCGUGGCGGCACCUGCCGCCGGUGGUAAAAAAGAUCGGAAGAGCACACGUCU, the “aptazyme ON/OFF ratio” value falls from 1.09 to 1.04.

GGGUCGACACCAAAUAAUCGCGUGGAUAUGGCACGCAAGUUUCUACCGGGCACCGUAAAUGUCCGACUGGAGCCGUUCGGGCGGCUAUAAACAGACCUCAGGCCCGAAGCGUGGCGGCACCUGCCGCCGGUGGUAAAAAAGAUCGGAAGAGCACACGUCU and GGGUCGACACCCCAUAAUCGCGUGGAUAUGGCACGCAAGUUUCUACCGGGCACCGUAAAUGUCCGACUGGAGCCGUUCGGGCGGCUAUAAACAGACCUCAGGCCCGAAGCGUGGCGGCACCUGCCGCCGGUGGUAAAAAAGAUCGGAAGAGCACACGUCU are the same in “aptazyme ON/OFF ratio” value: 1.08 for the first, 1.08 for the second.
